Assay results reported in paper PMC13044988, “Vaspin identified as a DNA‐binding serpin with functional consequences for protease inhibition”.

T1: vaspin WT (Homo sapiens, UniProt Q8IW75 21-414)
T1 sequence: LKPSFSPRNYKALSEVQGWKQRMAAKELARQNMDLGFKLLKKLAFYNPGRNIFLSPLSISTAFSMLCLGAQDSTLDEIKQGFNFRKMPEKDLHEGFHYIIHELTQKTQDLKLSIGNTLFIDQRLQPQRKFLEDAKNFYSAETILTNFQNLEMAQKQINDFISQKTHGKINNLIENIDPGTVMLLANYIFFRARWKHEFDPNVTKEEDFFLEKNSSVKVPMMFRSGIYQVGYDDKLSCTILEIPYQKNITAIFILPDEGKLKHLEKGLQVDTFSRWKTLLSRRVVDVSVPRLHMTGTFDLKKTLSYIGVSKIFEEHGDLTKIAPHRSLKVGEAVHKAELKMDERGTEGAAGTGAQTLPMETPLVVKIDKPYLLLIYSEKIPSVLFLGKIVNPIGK

T2: NHB vaspin (nonheparin-binding) (Homo sapiens, UniProt Q8IW75 21-414, K131A;K188A;R211A;K359A;R363A)
T2 sequence: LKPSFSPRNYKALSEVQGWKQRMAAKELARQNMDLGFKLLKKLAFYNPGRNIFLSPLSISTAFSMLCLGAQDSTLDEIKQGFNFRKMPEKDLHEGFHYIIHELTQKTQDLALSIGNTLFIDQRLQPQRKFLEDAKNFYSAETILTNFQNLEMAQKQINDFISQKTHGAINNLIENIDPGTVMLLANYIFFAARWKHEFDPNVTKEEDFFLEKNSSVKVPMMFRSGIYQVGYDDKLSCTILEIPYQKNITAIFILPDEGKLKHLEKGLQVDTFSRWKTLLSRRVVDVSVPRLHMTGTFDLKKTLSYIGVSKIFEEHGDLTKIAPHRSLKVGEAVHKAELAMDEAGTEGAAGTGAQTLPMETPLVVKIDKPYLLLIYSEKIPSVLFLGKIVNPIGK

T3: antichymotrypsin (ACT) (Homo sapiens, UniProt P01011 24-423)
T3 sequence: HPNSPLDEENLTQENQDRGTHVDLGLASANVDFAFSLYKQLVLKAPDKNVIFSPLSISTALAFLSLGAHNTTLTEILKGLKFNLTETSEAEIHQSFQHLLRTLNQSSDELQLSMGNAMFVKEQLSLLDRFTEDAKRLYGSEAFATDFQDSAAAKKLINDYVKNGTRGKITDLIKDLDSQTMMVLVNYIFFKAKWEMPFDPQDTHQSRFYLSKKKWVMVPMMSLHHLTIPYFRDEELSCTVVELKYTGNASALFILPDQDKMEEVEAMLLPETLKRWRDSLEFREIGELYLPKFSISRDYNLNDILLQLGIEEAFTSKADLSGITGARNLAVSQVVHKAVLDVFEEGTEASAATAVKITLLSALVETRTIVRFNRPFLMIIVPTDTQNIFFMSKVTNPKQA


Assays:
vaspin WT = biological target: T1, vaspin WT; assay: DRaCALA; Buffer 2; DRaCALA: Buffer 2, 20 mM Tris/HCl pH 7.8, 15 mM NaCl, 50 nM labeled ssDNA, 10 min at 20 C; screening also in Buffer 1 (20 mM Tris/HCl pH 7.8, 150 mM NaCl) and Buffer 3 (20 mM Tris/HCl pH 7.8, 15 mM KCl); settings: protein: recombinant; label: 5'-32P
[1] = biological target: T2, NHB vaspin (nonheparin-binding); assay: as above; settings: protein: recombinant; label: 5'-32P
KLK7 (kallikrein 7) = KLK7 (kallikrein 7) (Homo sapiens, UniProt P49862 30-253); assay: as above; settings: protein: recombinant; label: 5'-32P
Chain of KLK7 (kallikrein 7) (P49862 30-253): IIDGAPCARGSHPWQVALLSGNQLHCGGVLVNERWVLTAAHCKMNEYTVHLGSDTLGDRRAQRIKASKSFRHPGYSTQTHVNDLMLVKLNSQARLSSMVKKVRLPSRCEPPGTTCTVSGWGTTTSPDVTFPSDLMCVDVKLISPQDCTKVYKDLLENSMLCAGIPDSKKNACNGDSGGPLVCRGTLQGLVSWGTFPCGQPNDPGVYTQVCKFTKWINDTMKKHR

antichymotrypsin (ACT) = biological target: T3, antichymotrypsin (ACT); assay: DRaCALA; Buffer 1 (150 mM NaCl), 1 uM protein; DRaCALA: Buffer 2, 20 mM Tris/HCl pH 7.8, 15 mM NaCl, 50 nM labeled ssDNA, 10 min at 20 C; screening also in Buffer 1 (20 mM Tris/HCl pH 7.8, 150 mM NaCl) and Buffer 3 (20 mM Tris/HCl pH 7.8, 15 mM KCl); settings: label: 5'-32P

Row | Binder | Kd (vaspin WT) [nM] | Kd [1] [nM] | Kd (KLK7 (kallikrein 7)) [nM] | binding result (antichymotrypsin (ACT))
1 | GACGGATCGGGAGATCTCCC (ssDNA) [20 base ssDNA] | 59 | 269 | 2070 | –
2 | 120 base ssDNA (ssDNA) DNA: GACGGATCGGGAGATCTCCCGATCCCCTATGGTGCACTCTCAGTACAATCTGCTCTGATGCCGCATAGTTAAGCCAGTATCTGCTCCCTGCTTGTGTGTTGGAGGTCGCTGAGTAGTGCG | 128 | 178 | 1070 | –
3 | 60 base ssDNA (ssDNA) DNA: GACGGATCGGGAGATCTCCCGATCCCCTATGGTGCACTCTCAGTACAATCTGCTCTGATG | 117 | 188 | 815 | no binding
